Results on one protein are retold here after FireProtDB (doi:10.1110/ps.8.7.1500).

The conditions of this data set: Aspergillus oryzae (strain ATCC 42149 / RIB 40), Thermal, DSC, whole UniProt chain shown.

The term Tm denotes the temperature at the midpoint of the melting transition.

B1: Guanyl-specific ribonuclease T1 wild type, P00651 (protein)
chain: MMYSKLLTLTTLLLPTALALPSLVERACDYTCGSNCYSSSDVSTAQAAGYQLHEDGETVGSNSYPHKYNNYEGFDFSVSSPYYEWPILSSGDVYSGGSPGADRVVFNENNQLAGVITHTGASGNNFVECT
With B1, the unfolding free energy amounted to 5.6 kcal/mol (pH 2.8, 17.1 °C, glycine 10 mM); 4.9 kcal/mol (pH 2.8, 21.1 °C, glycine 10 mM); 4.3 kcal/mol (pH 2.8, 24.9 °C, glycine 10 mM); 4.3 kcal/mol (pH 2.8, 25 °C, glycine 10 mM); 3.7 kcal/mol (pH 2.8, 27.8 °C, glycine 10 mM); 5.2 kcal/mol (pH 3, 25 °C, glycine 10 mM). The unfolding free energy was found to be 6.7 kcal/mol (pH 3.6, 25 °C, acetate 10 mM); 7.2 kcal/mol (pH 4, 25 °C, acetate 10 mM); 8.1 kcal/mol (pH 5, 25 °C, acetate 10 mM); 8.5 kcal/mol (pH 6, 25 °C, MOPS or HEPES 10 mM). Besides, the melting temperature (Tm) by setting is: (pH 3, glycine 10 mM) 49.1 °C; (pH 5, acetate 10 mM) 58.6 °C; (pH 6, MOPS or HEPES 10 mM) 60.3 °C; (pH 7, MOPS or HEPES 10 mM) 61.8 °C. Also, the “unfolding enthalpy (calorimetric)” value turned out to be 82.7 kcal/mol (pH 3, glycine 10 mM); 99.1 kcal/mol (pH 5, acetate 10 mM); 101 kcal/mol (pH 6, MOPS or HEPES 10 mM); 102 kcal/mol (pH 7, MOPS or HEPES 10 mM).
